# Patent US20230235039A1 (REGENECORE BIOTECH, published 2023)
# Residue numbers refer to the chain shown, from its start.
# B1: single-domain antibody 1B3 (VHH, expressed in E. coli) (VHH)
# VHH: QVQLVESGGGSVQAGGSLRLSCAASGITASTSCMGWFRQSPGKEREGSLATIYDGSTSYADSVKGRFTISVDNAKNILYLQMNNLKPEDTAMYYCAAAKYCMFWSHPSYWGQGTQVTVSS
# notes: pMECS-VHH expressed in E. coli HB2151, purified on Ni-column; not shown: C-terminal tags from vector pMECS (HA tag, and the His tag implied by Ni-column purification)
# B2: single-domain antibody 1B8 (VHH, expressed in E. coli) (VHH)
# VHH: B1 VHH with R66Q
# notes: as for B1
# B3: humanized Fc-fused single-domain antibody 2B3-V2 (Fc fusion, not shown: a dimerising Fc or GST)
# chain (part 1 of 2): QVQLVESGGGSVQAGGSLRLSCAASGNTFSFSTYCMGWFRQSPGKEREGSLATIYDASTAYAGSVKGRFTISRDNSKNILYLQMNNLRAEDTAVYYCAAARYCMFWSHPSYWGQGTQVTVSS
# chain (part 2 of 2): HHHHHH
# notes: Humanized variant of 2B3; vector RJK-V4-hFC
# B4: Fc fusion protein of anti-IL-5 single-domain antibody 2B3 (Fc fusion, not shown: a dimerising Fc or GST)
# chain (part 1 of 2): B3 chain (part 1 of 2) with A57G, R73V, S76A, R88K, A89P, V94M, R101K, H108D
# chain (part 2 of 2): HHHHHH
# notes: Vector RJK-V4-hFC; also called clone 2B3
# B5: humanized Fc-fused single-domain antibody 1B3-V2 (Fc fusion, not shown: a dimerising Fc or GST)
# chain (part 1 of 2): B1 VHH with G55A, V71R, A74S, K86R, P87A, M92V, K99R
# chain (part 2 of 2): HHHHHH
# notes: Humanized variant of 1B3; vector RJK-V4-hFC
# B6: Fc fusion protein of anti-IL-5 single-domain antibody 1B3 (Fc fusion, not shown: a dimerising Fc or GST)
# chain (part 1 of 2): B1 VHH
# chain (part 2 of 2): HHHHHH
# notes: Vector RJK-V4-hFC; Embodiments name a human IgG4 Fc; also called clone 1B3
# Biological target: T1, human recombinant IL-5 protein with a histidine tag at carboxyl terminal (human, UniProt P05113 20-134)
# T1 construct: range 20-134; Expressed in 293F cells; also called hrIL-5-cHis; human IL-5 protein; not shown: histidine tag at carboxyl terminal
# Test: ELISA, IL-5 protein coated on the plate, VHH titrated, anti-HA tag HRP secondary antibody, OD450
# Method: 50 μL of 1 μg/mL IL-5 protein was coated on an ELISA plate at 4° C. overnight. The plate was washed. 200 μL of 5% milk was added for blocking at 37° C. for 1 h. The IL-5 protein-specific single-domain antibody (VHH) obtained in Example 1 was diluted to 2 μg/mL, and then diluted by a 5-fold gradient, in a total of 8 concentration gradients. The plate was washed. 50 μL of antibody was added in duplicate wells, and then incubated at 37° C. for 1 h. The plate was washed. 50 μL of mouse anti-HA tag HRP secondary antibody was added, and then incubated at 37° C. for 30 min. The plate was washed (for multiple times). 50 μL of TMB that had been restored to room temperature was added to react at room temperature in the dark for 15 min. 50 µL of stopping solution (1N HCl) was added. The resultant was measured using a microplate reader and then recorded. The curve was plotted.
row,Binder,EC50 (read off the curve) [nM]
1,B1,~6
2,B2,~4

# Biological target: T1, human recombinant IL-5 protein with a …
# Test: BLI (Octet 96), binding molecule on sensor, IL-5 antigen 200 nM and 2-fold dilutions
# Method: Formulation of SD buffer: A proper amount of bovine serum albumin and Tween 20 were dissolved in 1×PBS (pH 7.4), so that the mass (or volume) fractions of bovine serum albumin and Tween 20 were 0.1% and 0.02% respectively. The IL-5 binding molecule was formulated in the SD buffer to a concentration of 10 μg/mL. Formulation of antigen working solution: the antigen was formulated in the SD buffer to 200 nM, and then diluted by a 2-fold gradient in a total of 5 concentration gradients. In addition, a blank control of SD buffer was also provided. A proper amount of 0.1M glycine stock solution was diluted by 10-fold in deionized water and mixed uniformly, to obtain a regeneration solution. Octet 96 and the Data Acquisition software in its supporting computer were run. The bottom and side of the acquisition probe were cleaned using a lens tissue with a proper amount of 75% ethanol. The instrument was pre-warmed for 15 min or more. Sensor pre-wetting: sensor was soaked in the SD buffer for 10 min or more before the assay. Then, the machine procedure was set according to baseline→antibody→baseline→binding antigen→dissociating antigen→regenerating sensor for assay operation.
Binder,Kd [nM],koff [s⁻¹],kon [M⁻¹ s⁻¹]
B3,2.06,0.000406,197000
B4,1.6,0.000295,184000
B5,1.02,0.000184,180000
B6,0.88,0.000132,149000
